From US20150344570A1 (published 2015)

T1: FcγRIIa R (human, UniProt P12318 34-217)
T1 construct: extracellular domain; also called FcgRIIa R type; 2aR; not shown: His tag at the C terminus
T1 sequence (looked up): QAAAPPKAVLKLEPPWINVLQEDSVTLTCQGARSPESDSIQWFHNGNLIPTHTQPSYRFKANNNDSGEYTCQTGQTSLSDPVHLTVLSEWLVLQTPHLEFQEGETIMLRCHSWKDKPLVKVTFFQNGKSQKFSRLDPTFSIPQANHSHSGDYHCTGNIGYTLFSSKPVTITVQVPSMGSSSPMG

T2: FcγRIIb (human, UniProt P31994 43-217)
T2 construct: extracellular domain; also called FcgRIIb; 2b; not shown: His tag at the C terminus
T2 sequence (looked up): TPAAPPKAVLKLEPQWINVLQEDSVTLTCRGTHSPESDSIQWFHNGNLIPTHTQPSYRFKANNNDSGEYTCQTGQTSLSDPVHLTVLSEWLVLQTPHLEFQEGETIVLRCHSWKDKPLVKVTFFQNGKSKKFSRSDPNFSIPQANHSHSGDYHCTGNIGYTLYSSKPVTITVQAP


Tests used:
FcγRIIa R [1] = target: T1, FcγRIIa R; experiment: SPR, relative to GpH7-A5/GpH7-B3/GpL16-k0
FcγRIIb = target: T2, FcγRIIb; experiment: SPR, relative to GpH7-A5/GpH7-B3/GpL16-k0
FcγRIIa R [2] = target: T1, FcγRIIa R; experiment: SPR; He/Con_2aR divided by He/Con_2b (FcγRIIa R over FcγRIIb)

| He/Con_2aR (FcγRIIa R [1]) [control = 100] | He/Con_2b (FcγRIIb) [control = 100] | He_2aR/2b (FcγRIIa R [2]) [ratio] | Binder |
| --- | --- | --- | --- |
| 173 | 310 | 0.56 | GpH7-A5/GpH7-B3 variant S267_09D/GpL16-k0 (antibody, human IgG1, kappa, Heterodimerized anti-glypican-3 IgG1; mutation in the GpH7-B3 chain only; also called He Ab) heavy 1: not shown heavy 2: not shown light: DIVMTQSPLSLPVTPGEPASISCQASESLVHSNRNTYLHWYLQKPGQSPQLLIYKVSNRFSGVPDRFSGSGSGTDFTLKISRVEAEDVGVYYCSQNTHVPPTFGQGTKVEIERTVAAPSVFIFPPSDEQLKSGTASVVCLLNNFYPREAKVQWKVDNALQSGNSQESVTEQDSKDSTYSLSSTLTLSKADYEKHKVYACEVTHQGLSSPVTKSFNRGEC |
| 142 | 236 | 0.6 | GpH7-A5/GpH7-B3 variant V266_08L/GpL16-k0 (antibody, human IgG1, kappa, Heterodimerized anti-glypican-3 IgG1; mutation in the GpH7-B3 chain only; also called He Ab) heavy 1: not shown heavy 2: not shown light: DIVMTQSPLSLPVTPGEPASISCQASESLVHSNRNTYLHWYLQKPGQSPQLLIYKVSNRFSGVPDRFSGSGSGTDFTLKISRVEAEDVGVYYCSQNTHVPPTFGQGTKVEIERTVAAPSVFIFPPSDEQLKSGTASVVCLLNNFYPREAKVQWKVDNALQSGNSQESVTEQDSKDSTYSLSSTLTLSKADYEKHKVYACEVTHQGLSSPVTKSFNRGEC |
| 150 | 251 | 0.6 | GpH7-A5/GpH7-B3 variant V266_06M/GpL16-k0 (antibody, human IgG1, kappa, Heterodimerized anti-glypican-3 IgG1; mutation in the GpH7-B3 chain only; also called He Ab) heavy 1: not shown heavy 2: not shown light: DIVMTQSPLSLPVTPGEPASISCQASESLVHSNRNTYLHWYLQKPGQSPQLLIYKVSNRFSGVPDRFSGSGSGTDFTLKISRVEAEDVGVYYCSQNTHVPPTFGQGTKVEIERTVAAPSVFIFPPSDEQLKSGTASVVCLLNNFYPREAKVQWKVDNALQSGNSQESVTEQDSKDSTYSLSSTLTLSKADYEKHKVYACEVTHQGLSSPVTKSFNRGEC |
| 120 | 152 | 0.79 | GpH7-A5/GpH7-B3 variant V266_07I/GpL16-k0 (antibody, human IgG1, kappa, Heterodimerized anti-glypican-3 IgG1; mutation in the GpH7-B3 chain only; also called He Ab) heavy 1: not shown heavy 2: not shown light: DIVMTQSPLSLPVTPGEPASISCQASESLVHSNRNTYLHWYLQKPGQSPQLLIYKVSNRFSGVPDRFSGSGSGTDFTLKISRVEAEDVGVYYCSQNTHVPPTFGQGTKVEIERTVAAPSVFIFPPSDEQLKSGTASVVCLLNNFYPREAKVQWKVDNALQSGNSQESVTEQDSKDSTYSLSSTLTLSKADYEKHKVYACEVTHQGLSSPVTKSFNRGEC |
| 44.4 | 57.6 | 0.77 | GpH7-A5/GpH7-B3 variant V266_04F/GpL16-k0 (antibody, human IgG1, kappa, Heterodimerized anti-glypican-3 IgG1; mutation in the GpH7-B3 chain only; also called He Ab) heavy 1: not shown heavy 2: not shown light: DIVMTQSPLSLPVTPGEPASISCQASESLVHSNRNTYLHWYLQKPGQSPQLLIYKVSNRFSGVPDRFSGSGSGTDFTLKISRVEAEDVGVYYCSQNTHVPPTFGQGTKVEIERTVAAPSVFIFPPSDEQLKSGTASVVCLLNNFYPREAKVQWKVDNALQSGNSQESVTEQDSKDSTYSLSSTLTLSKADYEKHKVYACEVTHQGLSSPVTKSFNRGEC |
| 111 | 192 | 0.58 | GpH7-A5/GpH7-B3 variant S267_07I/GpL16-k0 (antibody, human IgG1, kappa, Heterodimerized anti-glypican-3 IgG1; mutation in the GpH7-B3 chain only; also called He Ab) heavy 1: not shown heavy 2: not shown light: DIVMTQSPLSLPVTPGEPASISCQASESLVHSNRNTYLHWYLQKPGQSPQLLIYKVSNRFSGVPDRFSGSGSGTDFTLKISRVEAEDVGVYYCSQNTHVPPTFGQGTKVEIERTVAAPSVFIFPPSDEQLKSGTASVVCLLNNFYPREAKVQWKVDNALQSGNSQESVTEQDSKDSTYSLSSTLTLSKADYEKHKVYACEVTHQGLSSPVTKSFNRGEC |
| 37.8 | 48 | 0.79 | GpH7-A5/GpH7-B3 variant S267_04F/GpL16-k0 (antibody, human IgG1, kappa, Heterodimerized anti-glypican-3 IgG1; mutation in the GpH7-B3 chain only; also called He Ab) heavy 1: not shown heavy 2: not shown light: DIVMTQSPLSLPVTPGEPASISCQASESLVHSNRNTYLHWYLQKPGQSPQLLIYKVSNRFSGVPDRFSGSGSGTDFTLKISRVEAEDVGVYYCSQNTHVPPTFGQGTKVEIERTVAAPSVFIFPPSDEQLKSGTASVVCLLNNFYPREAKVQWKVDNALQSGNSQESVTEQDSKDSTYSLSSTLTLSKADYEKHKVYACEVTHQGLSSPVTKSFNRGEC |
| 50.6 | 65.9 | 0.77 | GpH7-A5/GpH7-B3 variant S267_16H/GpL16-k0 (antibody, human IgG1, kappa, Heterodimerized anti-glypican-3 IgG1; mutation in the GpH7-B3 chain only; also called He Ab) heavy 1: not shown heavy 2: not shown light: DIVMTQSPLSLPVTPGEPASISCQASESLVHSNRNTYLHWYLQKPGQSPQLLIYKVSNRFSGVPDRFSGSGSGTDFTLKISRVEAEDVGVYYCSQNTHVPPTFGQGTKVEIERTVAAPSVFIFPPSDEQLKSGTASVVCLLNNFYPREAKVQWKVDNALQSGNSQESVTEQDSKDSTYSLSSTLTLSKADYEKHKVYACEVTHQGLSSPVTKSFNRGEC |
| 175 | 379 | 0.46 | GpH7-A5/GpH7-B3 variant S267_10E/GpL16-k0 (antibody, human IgG1, kappa, Heterodimerized anti-glypican-3 IgG1; mutation in the GpH7-B3 chain only; also called He Ab) heavy 1: not shown heavy 2: not shown light: DIVMTQSPLSLPVTPGEPASISCQASESLVHSNRNTYLHWYLQKPGQSPQLLIYKVSNRFSGVPDRFSGSGSGTDFTLKISRVEAEDVGVYYCSQNTHVPPTFGQGTKVEIERTVAAPSVFIFPPSDEQLKSGTASVVCLLNNFYPREAKVQWKVDNALQSGNSQESVTEQDSKDSTYSLSSTLTLSKADYEKHKVYACEVTHQGLSSPVTKSFNRGEC |
